Measured values as given in patent US20250250330A1 (REVOPSIS THERAPEUTICS, published 2025).
Where “and” joins values, the source holds several entries; their conditions need not be identical. Equal entries are not always repeated. Where two headings read alike, the source gives them in different places.

How the values were obtained:
[1] = molecular target: T1, Recombinant human VEGF165 (Peprotech, Cat #100-20) (human, UniProt P15692-4 27-191); test: ELISA; target coated at 1 ug/mL, anti-human IgG Fc-HRP detection
T1 construct: Bought protein; also called rhVEGF165; rh VEGF165
Experimental: (§1) First, the binding to rhVEGF-B was tested in comparison with rhVEGF₁₆₅. rhVEGF-B or rhVEGF₁₆₅ was used to coat Corning 9017 medium binding plates at 1 μg/mL and […] per well. […] Donkey anti-human IgG Fcγ-HRP was used for detection. OD450 nm readings were measured by Victor 3.

[2] = molecular target: T2, rhVEGF-B_Peprotech (Peprotech_100-20B) (human, UniProt P49765-2 22-188); test: as above
T2 construct: Bought protein
T2 sequence (looked up): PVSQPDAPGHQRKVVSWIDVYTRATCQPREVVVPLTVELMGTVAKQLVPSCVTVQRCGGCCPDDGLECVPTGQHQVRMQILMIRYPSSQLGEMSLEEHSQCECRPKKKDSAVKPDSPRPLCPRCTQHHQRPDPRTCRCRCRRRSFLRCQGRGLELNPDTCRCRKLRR
Experimental: as §1

[3] = molecular target: T3, rhVEGF-B_AcroBio (AcroBio_VE6-H5225) (human, UniProt P49765 22-207); test: as above
T3 construct: Bought protein; not shown: His tag
T3 sequence (looked up): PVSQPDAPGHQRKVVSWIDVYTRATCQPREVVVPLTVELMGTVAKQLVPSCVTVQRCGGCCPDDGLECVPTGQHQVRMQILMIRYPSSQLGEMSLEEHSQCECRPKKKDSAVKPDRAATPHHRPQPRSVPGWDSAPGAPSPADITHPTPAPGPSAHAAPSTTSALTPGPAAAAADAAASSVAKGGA
Experimental: as §1

[4] = molecular target: T1, Recombinant human VEGF165 (Peprotech, …); test: as above; remark: listed apart in the source
Experimental: Different target proteins were used to coat Corning 9017 medium binding plates at 1 μg/mL and 100 μl per well. Donkey anti-human IgG Fcγ-HRP was used for detection. OD450 nm readings were measured by Victor 3.

[5] = molecular target: T4, His-tagged recombinant human ANG-2 (AcroBiosystems, Cat #AN2-H52H4) (human, UniProt O15123 275-496); test: ELISA on rhANG-2; biotinylated anti-VpreB antibody and streptavidin-HRP detection; SgG format; anti-VpreB detection
T4 construct: also called rhANG-2; rhANG-2-His; not shown: His tag
T4 sequence (looked up): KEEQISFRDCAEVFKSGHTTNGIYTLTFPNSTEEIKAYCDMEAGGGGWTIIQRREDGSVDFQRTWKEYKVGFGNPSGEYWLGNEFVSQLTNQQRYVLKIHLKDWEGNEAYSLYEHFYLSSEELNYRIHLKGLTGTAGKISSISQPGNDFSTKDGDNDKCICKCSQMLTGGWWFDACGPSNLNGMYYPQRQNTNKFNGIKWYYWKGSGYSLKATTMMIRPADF
Experimental: SgG1 was diluted in blocking buffer at a starting concentration of 10 nM. Sab and scSv were diluted in blocking buffer at a starting concentration of 100 nM. They were then 1:3 serial diluted.

[6] = molecular target: T5, rdANG-2 (canine/dog; Creative Biolab_Vang-3062Lsx) (Canine/Dog, UniProt A0A8J8 19-495, limits assumed); test: ELISA on coated dog ANG-2
T5 construct: also called Dog ANG-2
T5 sequence (looked up): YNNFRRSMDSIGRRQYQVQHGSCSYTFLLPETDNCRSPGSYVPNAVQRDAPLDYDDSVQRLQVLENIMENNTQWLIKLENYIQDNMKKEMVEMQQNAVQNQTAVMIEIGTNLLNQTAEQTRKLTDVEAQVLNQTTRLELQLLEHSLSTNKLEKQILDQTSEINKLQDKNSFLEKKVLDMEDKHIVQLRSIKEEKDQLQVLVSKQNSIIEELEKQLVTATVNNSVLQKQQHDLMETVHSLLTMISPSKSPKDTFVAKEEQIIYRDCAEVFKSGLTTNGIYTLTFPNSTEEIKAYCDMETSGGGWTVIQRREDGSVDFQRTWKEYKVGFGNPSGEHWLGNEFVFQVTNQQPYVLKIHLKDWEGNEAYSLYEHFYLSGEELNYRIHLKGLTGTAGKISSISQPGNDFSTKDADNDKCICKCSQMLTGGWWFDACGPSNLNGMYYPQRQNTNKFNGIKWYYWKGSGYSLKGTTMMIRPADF

[7] = molecular target: T4, His-tagged recombinant human ANG-2 …; test: ELISA; rhANG-2 (AcroBiosystems) coated, anti-human IgG Fc-HRP detection
Experimental: (§2) Donkey anti-human IgG Fcγ-HRP (Jackson ImmunoResearch Laboratories, Cat #709-035-098) was used for detection and visualized by TMB substrate. OD450 nm readings were measured by Victor 3 with PerkinElmer 1420 Multilabel Counter.

[8] = molecular target: T4, His-tagged recombinant human ANG-2 …; test: ELISA EC50 on rhANG-2, against Faricimab
Experimental: as §2

[9] = molecular target: T6, rrANG-2 (rabbit; Speed Biosystems_YCP8015) (Rabbit, UniProt G1T9B3 19-496); test: ELISA on coated rabbit ANG-2
T6 construct: Bought protein; also called Rabbit ANG-2
T6 sequence: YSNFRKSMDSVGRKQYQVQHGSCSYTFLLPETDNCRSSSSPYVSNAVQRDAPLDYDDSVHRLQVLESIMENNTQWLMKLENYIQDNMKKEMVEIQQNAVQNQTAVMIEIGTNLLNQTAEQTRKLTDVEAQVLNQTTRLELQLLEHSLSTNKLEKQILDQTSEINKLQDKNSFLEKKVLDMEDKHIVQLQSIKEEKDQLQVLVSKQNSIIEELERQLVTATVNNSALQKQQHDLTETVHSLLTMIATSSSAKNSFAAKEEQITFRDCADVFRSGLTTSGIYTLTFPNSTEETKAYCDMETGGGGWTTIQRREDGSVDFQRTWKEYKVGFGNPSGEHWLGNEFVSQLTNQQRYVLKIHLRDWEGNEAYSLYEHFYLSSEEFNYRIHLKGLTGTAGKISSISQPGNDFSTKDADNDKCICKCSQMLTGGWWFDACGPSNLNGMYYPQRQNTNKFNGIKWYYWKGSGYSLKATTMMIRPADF

EC50 [1]: 16.5 pM
EC50 [2]: > 100000 pM
EC50 [3]: > 100000 pM
EC50 [4]: 12.2 pM
EC50 [5]: 25.7 pM
EC50 [6]: 13.5 pM
EC50 [7]: 11.8 pM and 13.8 pM
RO-101/Faricimab Fold [8]: 53 fold
EC50 [9]: 11 pM
B1: RO-101 VEGF/ANG-2 bispecific surrobody (bispecific antibody, human IgG1, L234A L235A)
heavy 1: not shown
heavy 2: EVQLVESGGGLVKPGGSLRLSCAASGFTFSSYGMHWVRQAPGKGLEWVAGISADSGDKNYADSVKGRFTISRDNAKNSLYLQMNSLRAEDTAVYYCAKEFISWIYTFDYLDYWGQGTLVTVSSASTKGPSVFPLAPSSKSTSGGTAALGCLVKDYFPEPVTVSWNSGALTSGVHTFPAVLQSSGLYSLSSVVTVPSSSLGTQTYICNVNHKPSNTKVDKKVEPKSCDKTHTCPPCPAPEAAGGPSVFLFPPKPKDTLMISRTPEVTCVVVDVSHEDPEVKFNWYVDGVEVHNAKTKPREEQYNSTYRVVSVLTVLHQDWLNGKEYKCKVSNKALPAPIEKTISKAKGQPREPQVCTLPPSRDELTKNQVSLSCAVKGFYPSDIAVEWESNGQPENNYKTTPPVLDSDGSFFLVSKLTVDKSRWQQGNVFSCSVMHEALHNHYTQKSLSLSPG
light: QPVLHQPPAMSSALGTTIRLTCTLRNDHDIGVYSVYWYQQRPGHPPRFLLRYFSQSDKSQGPQVPPRFSGSKDVARNRGYLSISELQPEDEAMYYCAMGARSSVTHVFGSGTQLTVLSQPKATPSVTLFPPSSEELQANKATLVCLMNDFYPGILTVTWKADGTPITQGVEMTTPSKQSNNKYAASSYLSLTPEQWRSRRSYSCQVMHEGSTVEKTVAPAECS
notes: Format SgG1; also called Sample 1
